Here are results for two molecules from patent publication US20200048372A1 (UCB, published 2020).

Assay [1] addresses T1, human serum albumin (human, UniProt P02768 25-609).
T1 construct: also called HSA; HumanSA
Kind of assay: SPR (Biacore).

In assay [2] the target is T1, human serum albumin. The assay can be described thus: SPR (Biacore), purified construct captured, HSA injected.
In the next assay the target is T2, mouse serum albumin (mouse, UniProt P07724 25-608).
T2 construct: also called MSA; MurineSA
Kind of assay: SPR (Biacore), purified construct captured, MSA injected.

B1: FabB-645dsFv (S3xG4S) with Fv heavy mutation T100aA (bispecific antibody, part only; not given: anti-OX40 Fab and linkers, V domains shown, not shown: another chain or arm of the molecule; large carriers; small tags and cut ends)
VH: EVQLLESGGGLVQPGGSLRLSCAVSGIDLSNYAINWVRQAPGKCLEWIGIIWASGTTFYATWAKGRFTISRDSTTVYLQMNSLRAEDTAVYYCARTVPGYSAAPYFDLWGQGTLVTVSS
VL: DIVMTQSPSSVSASVGDRVTITCQSSPSVWSNFLSWYQQKPGKAPKLLIYEASKLTSGVPSRFKGSGSGTDFTLTISSLQPEDFATYYCGGGYSSISDTTFGCGTKVEIK
modifications: Interchain disulfide between VH Cys44 and VL Cys100 (Kabat) of the dsFv
With B1, in the assay with human serum albumin [1], the Kd worked out at 51.6 nM, the koff was 0.0186 s⁻¹ and the kon was found to be 360000 M⁻¹ s⁻¹.

B2: FabB-didAb, -dAbL1 (CK-G4Sx2) & dAbH1 (CH1-G4Sx2) (bispecific antibody)
heavy: ASTKGPSVFPLAPSSKSTSGGTAALGCLVKDYFPEPVTVSWNSGALTSGVHTFPAVLQSSGLYSLSSVVTVPSSSLGTQTYICNVNHKPSNTKVDKKVEPKSCGGGGSGGGGSEVQLLESGGGLVQPGGSLRLSCAVSGIDLSNYAINWVRQAPGKGLEWIGIIWASGTTFYATWAKGRFTISRDSTTVYLQMNSLRAEDTAVYYCARTVPGYSTAPYFDLWGQGTLVTVSS
light: RTVAAPSVFIFPPSDEQLKSGTASVVCLLNNFYPREAKVQWKVDNALQSGNSQESVTEQDSKDSTYSLSSTLTLSKADYEKHKVYACEVTHQGLSSPVTKSFNRGECGGGGSGGGGSDIVMTQSPSSVSASVGDRVTITCQSSPSVWSNFLSWYQQKPGKAPKLLIYEASKLTSGVPSRFKGSGSGTDFTLTISSLQPEDFATYYCGGGYSSISDTTFGGGTKVEIK
notes: also called FabB-645Fv (G4Sx2); FabB-645Fv (2xG4S)
Turning to B2, the values for the koff in the assay with human serum albumin [2] and with mouse serum albumin were 0.000206 s⁻¹ and 0.000182 s⁻¹, respectively.
